Source: publication PMC7840993, “Fluorescent thermal shift-based method for detection of NF-κB binding to double-stranded DNA” (Scientific Reports, 2021)

Assays:
p50 = target: T1, p50 (Homo sapiens, UniProt P19838); assay: inhibition of dsDNA binding by fluorescence thermal shift assay
T1 construct: gene NFKB1; p50_1-367 (aa 1–367, complete RHD), HIS-tagged
T1 sequence (P19838 1-367): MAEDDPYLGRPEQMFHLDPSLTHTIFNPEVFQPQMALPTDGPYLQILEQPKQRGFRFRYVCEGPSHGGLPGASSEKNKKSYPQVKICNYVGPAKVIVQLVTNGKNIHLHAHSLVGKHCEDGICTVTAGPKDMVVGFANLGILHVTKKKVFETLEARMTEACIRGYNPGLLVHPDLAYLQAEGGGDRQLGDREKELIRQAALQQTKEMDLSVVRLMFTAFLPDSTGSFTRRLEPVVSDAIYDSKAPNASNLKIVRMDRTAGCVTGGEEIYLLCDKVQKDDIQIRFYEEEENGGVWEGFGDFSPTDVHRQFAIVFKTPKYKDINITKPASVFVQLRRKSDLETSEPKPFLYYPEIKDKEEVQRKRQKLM

p65/RelA = p65/RelA (Homo sapiens, UniProt Q04206); assay: inhibition of […]κB dsDNA binding by fluorescence thermal shift assay (also lowers Tm of the protein without DNA); EMSA
[1] = target: p65/RelA 1-306 (complete RHD) (human) (UniProt Q04206); assay: fluorescence thermal shift (SYPRO Orange); conditions: apparent KD, two equivalent κB sites considered; 1.5 µM protein; ΔTmax 1.678 °C; Thermal shift: 50 mM Tris-HCl pH 7.5, 225 mM NaCl, 2.25% glycerol, 25 min at 4 °C, then 25-95 °C melt; EMSA: 10 mM Tris-HCl pH 7.5, 0.5 mM EDTA, 65 mM KCl, 5 mM
[2] = target: T2, p50 1-367 (complete RHD) (human) (UniProt P19838); assay: fluorescence thermal shift (SYPRO Orange); conditions: apparent KD, two equivalent κB sites considered; 1.5 µM protein; ΔTmax 2.462 °C; Thermal shift: 50 mM Tris-HCl pH 7.5, 225 mM NaCl, 2.25% glycerol, 25 min at 4 °C, then 25-95 °C melt; EMSA: 10 mM Tris-HCl pH 7.5, 0.5 mM EDTA, 65 mM KCl, 5 mM
T2 sequence: T1 sequence (P19838 1-367)

p50 1-367 (complete RHD) = p50 1-367 (complete RHD) (human, UniProt P19838 1-367); assay: fluorescence thermal shift (SYPRO Orange); 10 µM DNA, 1.5 µM protein; Tm raised about 2-3 °C (1κB and 2κB range); Thermal shift: 50 mM Tris-HCl pH 7.5, 225 mM NaCl, 2.25% glycerol, 25 min at 4 °C, then 25-95 °C melt; EMSA: 10 mM Tris-HCl pH 7.5, 0.5 mM EDTA, 65 mM KCl, 5 mM MgCl2, 1 mM DTT, 100 µg/mL BSA, 10% glycerol, 50 ng/µl poly(dI-dC), 45 min at 30 °C; conditions: protein: recombinant; tags: His, N-terminal Myc; chain copies: 2; label: none; only one strand given
[3] = target: p65/RelA 1-306 (complete RHD) (human, UniProt Q04206 1-306); assay: fluorescence thermal shift (SYPRO Orange); 10 µM DNA, 1.5 µM protein; Tm raised about 1-1.5 °C (1κB and 2κB range); Thermal shift: 50 mM Tris-HCl pH 7.5, 225 mM NaCl, 2.25% glycerol, 25 min at 4 °C, then 25-95 °C melt; EMSA: 10 mM Tris-HCl pH 7.5, 0.5 mM EDTA, 65 mM KCl, 5 mM MgCl2, 1 mM DTT, 100 µg/mL BSA, 10% glycerol, 50 ng/µl poly(dI-dC), 45 min at 30 °C; conditions: protein: recombinant; chain copies: 2; label: none; only one strand given
Sequence of p65/RelA 1-306 (complete RHD) (Q04206 1-306): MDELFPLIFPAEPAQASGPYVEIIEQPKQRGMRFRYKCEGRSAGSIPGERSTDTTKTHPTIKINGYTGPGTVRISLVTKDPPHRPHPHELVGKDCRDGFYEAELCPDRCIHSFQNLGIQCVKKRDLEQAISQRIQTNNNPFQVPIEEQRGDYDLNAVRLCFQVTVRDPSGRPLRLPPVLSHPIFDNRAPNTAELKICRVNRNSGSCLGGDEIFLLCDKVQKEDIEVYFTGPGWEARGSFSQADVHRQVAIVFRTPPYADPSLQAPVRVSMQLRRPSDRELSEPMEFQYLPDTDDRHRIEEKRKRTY

Sequence of p65/RelA (Q04206 1-306): as above
Sequence of p65/RelA 1-306 (complete RHD) (human) (Q04206 1-306): as above

CC1=C(CO)C(=O)O[C@@H]([C@@H](C)[C@H]2CC[C@H]3[C@@H]4C[C@H]5O[C@]56[C@@H](O)C=CC(=O)[C@]6(C)[C@H]4CC[C@]23C)C1 [WFA, withaferin A]
IC50 (p50): ~19.1 µM
IC50 (p65/RelA): ~16.4 µM

AATTCGGGACTTTCCCGTCGGGACTTTCC (double strand) [2κB dsDNA]
Kd [1]: 2.23 µM
Kd [2]: 0.794 µM

B1: 1κB dsDNA (dsDNA)
DNA 1: AGTTGAGGGGACTTTCCCAGGC
DNA 2: GCCTGGGAAAGTCCCCTCAACT
binding result (p50 1-367 (complete RHD)): binds
binding result [3]: binds
